Results on 3 substances are retold here after patent publication US8586570B2, “Sox-based kinase sensor” (Massachusetts Institute of Technology, priority 2006, dated 2013).

Data set [1] has as its target T1, PKCα (Homo sapiens, UniProt P17252). Kind of data set: Kinetic parameters of the peptides with PKCα (continuous fluorescence assay). Format: biochemical. To be noted: for Km / Vmax: with PKCα. The text has this: To solve for enzyme kinetic parameters for this reaction, determination of the initial rate of product formation from the increase in fluorescence intensity is necessary. With this sensor, a correction for the decrease in fluorescence intensity due to the starting material being consumed is needed to determine the rate of product formation from the initial slope. The fluorescence intensity at any given point can be determined from the following equation: I(t)=fSs(t)+fPP(t) (1) where I(t) is the fluorescence intensity, S(t) is the amount of substrate in μM, P(t) is the amount of product in μM, fS is the fluorescence intensity per μM of substrate, and fP is fluorescence intensity per μM of product. The amount of substrate and product at any given point are related by: S(t)+P(t)=S0 (2) where S0 is the initial amount of substrate. Substitution of (2) into (1) followed by rearrangement, yields:
[formula] The initial slope of the reaction, dI(t)/dt, was measured within the first 5% of substrate turnover. The constants fP and fS were calculated from the slope of a line of fluorescence intensity versus concentration of P and S, respectively. A linear fit of a Hanes plot ([S]/V vs. […]) was used to find Km and Vmax.
For in vitro applications, the concentration of kinase can range from about 0.5 nM to about 1 μM, typically not more than about 500 nM, and preferably not more than about 250 nM. The concentrations of sensor can vary, but usually ranges between about 0.01 μM to 0.1 mM. Adenosine 5′-triphosphate (ATP) is the preferred source of phosphate, in stock solutions of about 10-100 mM. Because most kinases have Km values for ATP in the range of about 10-150 μM, saturating concentrations of ATP are used to arrive at values of Km and Vmax for the substrates. For in vivo applications, when the sensor is internalized into a cell, sufficient kinases, Mg^2+ and phosphate sources exist in the cytosol. For in vivo sensing, a cellular internalization sequence can be included in the sensor design. Suitable cellular internalization sequences include Penetratins, HIV-Tat domains and poly-arginine sequences (Lindgren, M. et al. Trends Pharmacol. Sci. 2000, 21, 99-103; Wadia, J. S. et al. Curr Opin. Biotech. 2002, 13, 52-56; Carrigan, C. N. Analyt. Biochem. 2005, 341, 290-298).
For applications in which the kinase is dependent on cofactors, a source of cofactor is also included in the sample. For example, for PKC, sources of Ca^2+, phospholipid and diacylglycerol are needed.
(§1) Fluorescence experiments were performed on a Fluoromax 3 from Jobin Yvon. 5 nm emission and excitation slit widths were used. For all experiments, an excitation wavelength of 360 nm was used. Enzyme assays were performed by monitoring emission at 485 nm.

A short description of data set [2]: Fluorescence increase, phosphopeptide vs unphosphorylated peptide at 485 nm. It counts as physicochemical. To be noted: phosphopeptide / unphosphorylated peptide intensity at 485 nm, generally 10 mM Mg2+. On the procedure: as §1
After peptide characterization, emission spectra were obtained for unphosphorylated and phosphorylated peptides under appropriate conditions. The spectra were generally acquired in the presence of 10 mM Mg^2+(although lower Mg^2+concentrations can and have been used as well) and either 0, 0.1 or 1 mM ATP in a preselected buffer (usually 20 mM HEPES, pH 7.4). Relying on the emission spectra the fold fluorescence differences were measured by dividing the fluorescence intensity of the phosphopeptide by the fluorescence intensity of its unphosphorylated counterpart at 485 nm. FIG. 2 depicts the fluorescence spectra of the phosphorylated and unphosphorylated peptides in the appropriate assay mixture: (A) emissions scans of PKCβI-1 (10 μM), 10 mM Mg(II), 3×; (B) emissions scans of PKCβI-1 (10 μM), 10 mM Mg(II), 0 mM ATP, 3×.; (C) fluorescence difference for PKCβI-1 (10 μM), 10 mM Mg(II), 3×; (D) fluorescence increase for PKCβI-1 (10 μM) at 10 mM Mg (II).

The subject of data set [3] is PKC isozymes present in cells. Kind of data set: Use of sensor in cell lysates. The text has this: In comparison, the chemosensors with the extended recognition domain as disclosed in the present invention for PKCα, PKCα-S9 and PKCα-S10, also have good biophysical properties (Table IV).
For data set [4], the target named is T1, PKCα. The following applies: optimal PKCα peptide substrate selected from the literature; cited from earlier work.

Like-named read-outs stand apart in the source and are kept apart here.

“Ac-R R R-C(Sox)-G-(p)S F R R K A-NH2 [PKCα-S9(P9)]”: the “selectivity for PKCα” value in data set [1] (as determined by kinetic parameters, compared with PKCα-S1) is recorded as “much more selective for PKCα”. In data set [1], the Km was 0.093 ± 0.017 µM and the Vmax was 1.8 ± 0.12 µmol/min/mg. Further, the “Fluorescence Increase” value in data set [2] is reported as 3.5 x.
In the case of “Ac-Sox-P-G-(p)S F R R R-NH2 [PKCα-S1(P1), reference compound]”, the “reactivity in cell lysates” value in data set [3] was “reactive toward many of the PKC isozymes”. Moreover, in data set [1], the Km is 8.6 ± 2.9 µM and the Vmax is 5.9 ± 1.9 µmol/min/mg. Also, in data set [2], the “Fluorescence Increase” value came to 5.7 x.
Take “RRRKGS*FRRKA (RRRKGSFRRKA) [optimal PKCα peptide substrate selected from the literature]”: the Km in data set [4] is 3.8 µM.
